This note sets out measurements from US20040009913A1, “Use of serum response factor (srf) modulator for treating srf related diseases” (priority 2000, published 2004).

The test system of one assay is monolayer ES cells. Description: In vitro differentiation of monolayer ES cells, RT-PCR of differentiation marker genes. Format: cell-based, mouse. Particulars: SRF-containing (Srf(−/+)) ES cells in monolayer, LIF withdrawal plus agent. As for the experimental part: In vitro differentiation conditions. For differentiation experiments, cells were seeded in monolayers on gelatin-coated dishes and kept overnight in complete medium. The first day after seeding was defined to be day 0 of differentiation. The medium was then exchanged by complete medium lacking LIF or complete medium without LIF, but containing either 0.8% dimethylsulfoxide (DMSO) or 5×10^−7 M all-trans RA, respectively. Medium was exchanged daily and cells were harvested at the indicated time points for RT-PCR analysis. The vitality was determined by trypan blue staining. The vitality of detached cells was less than 5%.
Total RNA preparation (RNeasy kit, QUIAGEN) and first strand cDNA synthesis (Superscript II, Gibco) were done according to the manufacturers protocols. 1 μg of total RNA treated with DNAse I was used for reverse transcription. […] For quantitative analysis, SYBR Green PCR technology was used (Perkin Elmer). Real time detection of the PCR product was monitored by measuring the increase in fluorescence caused by the binding of SYBR Green to double-stranded DNA with ABI PRISM 7700 Sequence Detector. In order to do relative quantification, a threshold cycle (Ct), the cycle at which a statistically significant increase in fluorescence occurs, was derived from the resulting PCR profiles of each sample. […] The relative quantitation value is expressed as […]. […]

A further assay relates to Srf(−/−) ES cells. Description: F-actin / stress fiber immunofluorescence and cell morphology after transient transfection of ES cells. Format: cell-based, mouse. The protocol:
Alternatively, the cells were grown on gelatine-coated coverslips in complete growth medium for 48 hours, or as EBs in droplets for up to 8 days. The samples were then fixed in 4% formaldehyde and permeabilized in 0.2% Triton-X 100. Non-specific binding was blocked by incubating the cells for one hour in 1% BSA in PBS at 37° C. before staining with primary antibodies for 1 hour at 37° C. Incubation with fluorescence conjugated secondary antibodies (Molecular Probes, 1:200 in 0.2% BSA) was performed for 30 min at 37° C. To visualize filamentous actin, 1 unit Oregon-green phalloidin was included into the mixture. Coverstips were washed four times with PBS, once in water, air-dried and mounted in Moviol. Image acquisition was done with LSM 510 (Zeiss).
(C) SRF-VP16 expression leads to increased stress fiber formation. […] ES cells were transiently transfected with SRF-VP16 (upper panel) and the SRF-M-VP16 control construct (lower panel) and processed for immunofluorescence analysis three days later. […]
SRF-VP16 fusion proteins were previously used to drive SRF-dependent transcription independent of upstream signalling cascades (Hines et al., 1999; Johansen and Prywes, 1994;Treisman et al., 1992). […] Undifferentiated ES cells were transiently transfected with SRF-VP16 and SRF M-VP16 expression vectors, and RNA expression levels were measured by quantitative RT-PCR (FIG. 17B). […]

Take `C[S+](C)[O-]` [DMSO, dimethylsulfoxide]: in the assay on monolayer ES cells, the “timing of mesodermal marker gene induction versus LIF withdrawal alone” value is given as “earlier induction”.

B1: wildtype SRF protein: wildtype serum response factor reintroduced by expression vector (protein, UniProt P11831 1-508, looked up)
Serum response factor: MLPTQAGAAAALGRGSALGGSLNRTPTGRPGGGGGTRGANGGRVPGNGAGLGPGRLEREAAAAAATTPAPTAGALYSGSEGDSESGEEEELGAERRGLKRSLSEMEIGMVVGGPEASAAATGGYGPVSGAVSGAKPGKKTRGRVKIKMEFIDNKLRRYTTFSKRKTGIMKKAYELSTLTGTQVLLLVASETGHVYTFATRKLQPMITSETGKALIQTCLNSPDSPPRSDPTTDQRMSATGFEETDLTYQVSESDSSGETKDTLKPAFTVTNLPGTTSTIQTAPSTSTTMQVSSGPSFPITNYLAPVSASVSPSAVSSANGTVLKSTGSGPVSSGGLMQLPTSFTLMPGGAVAQQVPVQAIQVHQAPQQASPSRDSSTDLTQTSSSGTVTLPATIMTSSVPTTVGGHMMYPSPHAVMYAPTSGLGDGSLTVLNAFSQAPSTMQVSHSQVQEPGGVPQVFLTASSGTVQIPVSAVQLHQMAVIGQQAGSSSNLTELQVVNLDTAHSTKSE
Consider B1, for which, in the assay with Srf(−/−) ES cells (reintroduction by transient transfection), the “effects on gene expression and cytoskeletal rearrangements” value is recorded as “only minor effects”.

B2: zyxin: focal adhesion protein transiently overexpressed in Srf(−/−) ES cells (protein, UniProt Q15942 2-572, looked up)
Zyxin: AAPRPSPAISVSVSAPAFYAPQKKFGPVVAPKPKVNPFRPGDSEPPPAPGAQRAQMGRVGEIPPPPPEDFPLPPPPLAGDGDDAEGALGGAFPPPPPPIEESFPPAPLEEEIFPSPPPPPEEEGGPEAPIPPPPQPREKVSSIDLEIDSLSSLLDDMTKNDPFKARVSSGYVPPPVATPFSSKSSTKPAAGGTAPLPPWKSPSSSQPLPQVPAPAQSQTQFHVQPQPQPKPQVQLHVQSQTQPVSLANTQPRGPPASSPAPAPKFSPVTPKFTPVASKFSPGAPGGSGSQPNQKLGHPEALSAGTGSPQPPSFTYAQQREKPRVQEKQHPVPPPAQNQNQVRSPGAPGPLTLKEVEELEQLTQQLMQDMEHPQRQNVAVNELCGRCHQPLARAQPAVRALGQLFHIACFTCHQCAQQLQGQQFYSLEGAPYCEGCYTDTLEKCNTCGEPITDRMLRATGKAYHPHCFTCVVCARPLEGTSFIVDQANRPHCVPDYHKQYAPRCSVCSEPIMPEPGRDETVRVVALDKNFHMKCYKCEDCGKPLSIEADDNGCFPLDGHVLCRKCHTARAQT
On to B2, for which, in the assay with Srf(−/−) ES cells (transient overexpression in Srf(−/−) ES cells), the “rescue of defective actin cytoskeleton” value is given as “did not rescue the defective actin cytoskeleton”.
